The values below come from patent publication US20250213694A1 (SHANGHAI SIMNOVA BIOTECHNOLOGY, published 2025).

The experiment concerns the target T1, human GPRC5D on GPRC5D-overexpressing cells (human, UniProt Q9NZD1 1-345).
T1 construct: whole, on cells; also called also tested on NCI-H929 cells
Briefly: cell-based ELISA and FACS on human GPRC5D-overexpressing cells and NCI-H929 cells; chimeric human IgG1 format. For orientation: In an ELISA, binding on a coated surface is turned into a signal by an enzyme label.

T1 sequence (Q9NZD1 whole entry): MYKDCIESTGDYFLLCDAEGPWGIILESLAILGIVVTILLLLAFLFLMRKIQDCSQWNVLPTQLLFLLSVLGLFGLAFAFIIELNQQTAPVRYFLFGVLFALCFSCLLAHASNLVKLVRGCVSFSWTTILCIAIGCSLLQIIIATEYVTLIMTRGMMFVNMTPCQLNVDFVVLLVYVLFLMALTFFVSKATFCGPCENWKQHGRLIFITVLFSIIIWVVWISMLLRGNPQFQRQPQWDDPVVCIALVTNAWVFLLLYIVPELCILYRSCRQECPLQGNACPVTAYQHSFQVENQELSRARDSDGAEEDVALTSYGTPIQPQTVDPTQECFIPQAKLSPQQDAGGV

B1: GPRC5D-mab03 (antibody, V domains shown)
VH: QAYLQQSGAELVRPGASVKMSCKASGYTFTSYNMNWVKQTPRQGLEWIGAIYPGNGDTSYNQKFKGKATLTVDKSSSTAYMQLSSLTSEDSAVYFCARVRLRYAMDYWGQGTSVTVSS
VL: DIVMTQSQKFMSTTVGDRVTITCKASQNVGTAVAWYQQKPGQSPKLLISSASNRYTGVPERFTGSGSGTDFTLTIRNMQSEDLADYFCQQYSSYPWTFGGGTELEIK
notes: Murine variable regions; Screened as a chimeric antibody containing the constant region of human IgG1
For the molecule B1, the binding result is recorded as “binds”.

B2: GPRC5D-mab06 (antibody, V domains shown)
VH: QVQLKQSGPGLVQPSQSLSITCTVSGFSLTSYGVNWIRQSPGKGLEWLGVIWSGGNTDYNAAFRSRLSISKDNSKSQVFFKMNSLQADDTAIYYCARGQLGRPYWYFDVWGTGTSVTVSS
VL: DIVMTQSHKFMSTSVGDRVSITCKASQDVRTAVAWYQQKPGQSPKLLIYWASTRHTGVPDRFTGSRSGTDYTLTISSVQAEDLALYYCQQHYSTPLTFGAGTKLELK
notes: as for B1
For B2, the binding result is recorded as “binds”.
